Reference: the supplement of paper PMC12455559

assay: purified protein yield per well (BCA); higher = higher soluble expression
How it was run: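 Candidate enzymes were made in 2 mL autoinduction cultures of E. coli C41(DE3) with 100 µg/mL kanamycin, at 37 °C for 2 h and then 18 °C for 40 h, and purified with Ni-charged magnetic beads and SUMO protease cleavage. The Pierce Rapid Gold BCA kit gave purified protein yield per well. Values lower than 25 ug (0.1 mg/mL) are below the detection threshold.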

Q: Which “purified protein yield per well” value does the source give for “VENGPAPTLAAIQKDGPYAVTAQAIKGSGFGSGTIYVPNAAGQYALVAVCPGFVSPESSITAISKRLATHGFVVVTIATNTLLDFPSSRASQILAALKAAAGTTTGAVAGKIDVSRQVASGWSMGGGGTLEAAASTPGLVAAVAYAPWNTSSTKYKTITVPSLILGGTADVIAPVAQHSQPFYNAIPATTPKMLAVIQGASHFFPNSAGEPQSYTNISWVKRFADGDTRYGTFLNTKDAAFSTVQSTGPF [ESM089]” here?
A: Its value is < 25 µg.

Q: With “VENGPAPTLAALKADGPYAITSQAVPGNGFGAGTVYVPTAAGKYALVAICPGFVSAQSTMTDMAKRLATHGFVVVAISTNTLLDFPPSRASQLLAALKATASLTSGPVVGKIDTSRQAVSGWSMGGGGTLEAAGSTPGLMAAVAFAPWDTSTTKMKVDKVPAAIIGGSSDVIAPVSSHSQPFYNAIPSTTPKLLAVISGASHFFPTTASEPASYTNISWMKRFADGDTRYSQFLNGNDAALSSFTSNGPF [ESM092]” as the sequence, how does the “purified protein yield per well” value read?
A: The value was < 25 µg.

Q: For “VENGPAPTLASVQADGPYAVSTQSVSGTGFGGGTVYSPNTAGKYAVVAVCPGFTATQSSIAAISRRLATHGFVVVTINTKSTYDFPPSRANQILAALRTVTALTTGPVAGKMDISRQGVAGWSMGGGGAMLAAGMTPGLKGGVAFAPWAQSSNVSSSAVPMSYLAGSADGVAPPSMSTSFYNATPGTTRKMLGVIRGADHNFPKTASQPASYTQVAWMKRFLDSDTRYSQFLNGDSRFSTFRSTGPF [ESM088]”, which “purified protein yield per well” value is on record?
A: The value was < 25 µg.

Q: Which “purified protein yield per well” value does the source give for “VENGPAPTVSSVRADAGSYSVSKTSYADNVTPGFGAATVYAPSNTTGQKFGVVSFAPGWTENQSAVDWIARRTASFGFVTIVFDVNNTFFDFPAARAPQLIAALNFVTGTSNQRNLADASREAVVGHSMGGGATLDAARANPSLKATVGLAPWNPGISYSDVTVPSLEIGAQNDFIAGVSNNARYFYNSLPGSTPKAYTEMKSFGHLQTNYPSAQVGAATVSWLKRYVDGDTRYAPFICGAHTGVQNSELSAYASNC [ESM168]” here?
A: Its value is < 25 µg.

Q: Which “purified protein yield per well” value does the source give for “VENGPVPTLADLKKDGPYAVTSQKVAGSGFGSGTIYSPNTAGKYALVAVCPGFVSAESSITDISRRLATHGFVVITIGTKTLLDFPSSRATQLLAALKTATTTTTGPVVGKIDTARQVVSGWSMGGGGTLEAAGITPGLKAAVAYAPWHSTTTKIKTSTVPSIIFGATGDVVAPVASHSQKFYDVLPTSTKKQLAVLQGSNHFFPNSAIEPVSYSNISWVKRFADGDTRYSQFLSVADPAWSKVQSNGPF [ESM166]” here?
A: Its value is < 25 µg.

Q: With “VPAPPAVERGPAPTPASVTAAVGPHAVITAAVRRADVAGFGGGTLLAPADAAGGPYGVVAVAPGFREGAATLAWLGPRLASRGFVVLLVDTLDPDEFPTARAAELLAAIDWVVADSPVRDRADPARAAVLGHSMGGGAALEAALARPGLRAAIPMAPWDPAADFAGVRVPTLVLAAEDDTIAPPAEHAERFYASLTAPARAYALLPGRDHDFSNAPDDVTAGLVLSWLARFVDGDTRYTRLLCRGTLSAAVASQQDTCPAP [TEP074]” as the sequence, how does the “purified protein yield per well” value read?
A: The value was < 25 µg.

Q: For “VQIGPAPTSAALNKDGSFSVSSSSVSMLSARGFGSGTIYYPSTSGQYGVIAVCPGFTGTSSSISWFARRLASHGFVTIAMNTTTTLDQPASRATQLAAALKYVLNSSSSTVRSRIRAADRGVAGHSMGGGGTLIASQSDSTLRVGIPMTPWNLSTNFSSVKVPQMIFGADGDTIAPYASHARPFYNSLSKAPKAYGLLKSATHFTPNATDQRIGRYGVAFAKRFVDGDTRYSPFLCGSEHNSYATSSKFATYLSNCPY [ESM148]”, which “purified protein yield per well” value is on record?
A: Its value is < 25 µg.

Q: Which “purified protein yield per well” value does the source give for “VQIGPAPTSAALNKDGTFSVSSTSVSSLSARGFGGGTIYYPTTAGQYGVIAVCPGYTGTSSSISWFARRLATHGFVTIAMNTTTTLDQPDSRATQLAAALKCVLSNSTVKSRIRSTDRGVAGHSMGGGGTLIASQSDSSLRVGIPMTPWNLSTNFSAVKVPQMIFGADGDTIAPYASHARPFYNSINKTQKAYGLLKSATHFTPNSTDQRIGRYGVAFAKRFVDGDTRYSAFLCGAEHSSYATSSKFATYLSNCPY [ESM154]” here?
A: Its value is < 25 µg.

Q: For “VQIGPNPTKASLEASSGPFTVGKFTISRPSGYAAGTVYYPTNAGAKVGVISIVPGFVSYQSSVAWWGPRLASHGFVVVTIDTNTTVDQPDSRSRQQLAALDQVVALGNNSSSPLYNKIDGTRTGVMGWSMGGGGSLISAKNRPSIKAAAPQAPWASLTSFSSLTVPTLIFSCQSDIVAPVATHANSFYNEMSRNPKQLLEKTLGDHFCMNSANPTVGLKGVAWMKRFIDGDTRYTTFACSNPNAFGFSDFRTARCS [ESM111]”, which “purified protein yield per well” value is on record?
A: Its value is < 25 µg.

Q: Which “purified protein yield per well” value does the source give for “VQNGPAPTLAALKADGPYAITSQAVAGNGFGAGTIYTPTAAGKYALVAICPGFVSAQSTMAGLAKRLATHGFVVVAISTNTLLDFPSSRATQLLAALKTVSALNTGAVAGKVDTTRQAVSGWSMGGGGTLEAAGATPGLVAAVAFAPWDTSTTKMKVNKVPAAIIGGSSDAVAPVASHSQKFYD [ESM063]” here?
A: Its value is < 25 µg.

Q: For “VQNGPNPTLDAIKADGPYAITSQAVAGNGFGAGTIYMPTAAGKYALVAICPGFVSAQSTMAGMAKRLATHGFVVVAISTNTLFDFPSSRATQLLAALKTVSALNTGAVVGKIDTTRQAVSGWSMGGGGTLEAAGATPGLVAAVAFAPWDTSTTKMKVNKVPAAIIGGSSDVIAPVASHSQKFYDAIPATTPKLLAVINGADHFFPTKASEPASYTNISWMKRFADGDTRYSSFLNGNDAALSSFSSNGPF [ESM056]”, which “purified protein yield per well” value is on record?
A: The value was < 25 µg.

Q: With “VQNGPTPTLADLKKDGPYAVTSQTVAGNGFGGGTVYSPNTAGKYALVAVCPGFVSAQSSMTEMGRRLATHGFVVVTIATNTPFDFPSSRATQLLAALKTVAALNTGAVAGKVDTSRQVVSGWSMGGGGTLEAAGITPGLVAGVAFAPWHTSTAKMTSLTVPVAIIGGTSDTIAPVSGHSQKFYDAIPKTTKKMLGVITGADHFFPTKASEPTSYSNISWVKRFADGDTRYSPFLTGQDAAWASFVSTGPF [ESM118]” as the sequence, how does the “purified protein yield per well” value read?
A: Its value is < 25 µg.

Q: For “VQSESPGKKYTSGPYGYTTTSLTGYSAGATIYIPRTGTPPYSGIVFMQPYTGTQAMDAAWGPFFASHGIIYVNCDSMTTLDTVDSRATQQMNAVSILKSSSKVKGKLDTSRVGVMGWSMGGGASWINSSKSGVKTAMTLAGHNLTAVSTASKGYSTRCPTAIFSGSLDTTYLGGLGQSEGVYAAIPRSVSKLHYKVATAGHMVWGGPTTASVNVGAIGLAFQKTYLDGDTRWKAYITRPADAAIWTTNLR [TEP005]”, which “purified protein yield per well” value is on record?
A: The value was < 25 µg.

Q: With “WLTSAASPVRARVDANRLGVGGHSMGGGGAIEAASEMPSLKASIGFEPWNGIGSWPGVRVPTMIQGAQNDNIAPVAQHSEPFYNSMTNAPEKAYAEFTGASHFFSGQAGPATTRLSVSWYKRFLDNDTRYDQFLCPGPRSPEVVEYRNTCPLTTPGGGGGTTTTTGPGTTTTTRPTTTTTAPPAQCQWWEWWCWLGWG [TEP046]” as the sequence, how does the “purified protein yield per well” value read?
A: The value was < 25 µg.

Q: Which “purified protein yield per well” value does the source give for “WTPDPEPPGPVPEPCNTDCSQGPYPTTGSVEANMGPFSISSVSVPWTVSGFGGGTIYYPSSGTTGSLGAIALIPGFLGPEWTISAWGERLASHGFIVITVATNAVTDQPDSRATQLSRALDHVIIESGSTSSPIYGMVDPNRLGAMGISMGGGGTLKLTSDRTLSAAVPMVPWYLGFNDFESIDTPTLIIGCENDTIAPVALHSIPFYNAISDDVDKAYLEMNNGSHGCVAGLTNVDILGKYAVSWMKRFIDNDQRYDQFLCGPNHTAPFSVSDYRDNCDY [DP096]” here?
A: Its value is < 25 µg.

Q: With “YILASGFVGQLVAQTPSLEALGRQGPYQVAWYTQLPSVPEFSGATLYFPANKAQDFGGVVISPGFFERQENISWWGNYLASHGFAVITFDTNELRDLPPLRADALLATIDLLRGENSRQGSAVRGKILEDSMAVMGHSMGGAAALLLANENSNEIKAAIPFNAGGLRNANFSAVAVPTLVIAGEIDRLAPVNEHAWSHYQTLT [TEP088]” as the sequence, how does the “purified protein yield per well” value read?
A: Its value is < 25 µg.

Q: Which “purified protein yield per well” value does the source give for “YNPPPPPPDPGPGPGQPSDGFERGPNPSVSFLEASRGPFSIRETRVSGTVRGFGGGTIYYPTGTSGTMGAIVVIPGFVSPESSIAWWGPKLASHGFVVMTIATNSGYDQPRSRATQINSALDYLIDQNSDSRSPVRNMIDTDRLGVMGWSMGGGGTLRVASQNRLKAAVGLAPYDTISFRNVDAPTMILACESDTIAPVRNHASPFYNEIPFNTDKAFFEINGGSHTCANGGNRFNETLSRLGVSWMKR [ESM179]” here?
A: The value was < 25 µg.

Q: With “YQRGPDPTRSALTADGPFSVTTYTVSRYAVTGFGGGVIYYPTGTSLTFGGIAVSPGYTADASSLAWFGRRLASHGFVVLVINTNSRFDFPDSRASQLAAALDYLVSRSPSAVRARLDTSRLAVAGHSMGGGATLRISENRPSLKAAVPLTPWHTDKTFNTAVPQLIIGAENDTVAPVSDHAIPFYQNLPSTTPKVYLELNNASHF [TEP127]” as the sequence, how does the “purified protein yield per well” value read?
A: Its value is < 25 µg.

Q: With “YRPVVAFRVKVRKLERAIGESMASVARMQGRYLRASTLTAVAAATIVGCYLRGPDPTVELVESPVGPFEVETVLVPSTVDGFGGGEIYDPVDEDYSFGGIAVVPGVGIDRSRLEWYGPRLASHGFVVFLIETDSVWDVPDQRGEQLIAALDYMTTQSAVVDVVDPKRLAVMGYSFGGGGVIHATRLKPDLKAAIPLAMWFWDNDQSASTVPHLLISCEIDFENDAHTGAVYESRPASTARAMMEIAGADHQCIKQDGSTEQQ [TEP130]” as the sequence, how does the “purified protein yield per well” value read?
A: The value was < 25 µg.

Q: Which “purified protein yield per well” value does the source give for “YYPTSTSDGTFGAVVVTPGFTATESSMAWLGPRLASQGFVVFTIDTLTTLDQPDSRGRQMLAALDYLTERSSARTRIDGTRLGVIGHSMGGGGTLEAAKSRPSLKAAIPLTPWNLDKTWPEVTTPTLVVGADGDTVAPVATHAKPFYSSLPSSTDRAYLELNNATHFAPN [TEP120]” here?
A: Its value is < 25 µg.

Q: For “YYSGATLYYPIDAPEPFASIVIVPGWGMPESTIQDWGPFFASWGIVAMTIGTNNPNYDWPEERAEALLDAIETIKQEDGRINSPVYGKIDLNSFAVSGWSMGGGGAQLAAVMEPTLKAVIALCPWLDNWVLGPDDLNHSVPILIFSGENDVNAPPYLHADIHYNYTPAATDKLLFEVENGDHYVANGPDGGSGYIGDRAHEWLKKYLLDDFSNCELLLEVPPTASQYLTNIECESVIQGDLNGDGVIDILDIIILVNMILNDEYNSIADLNEDGELNILDVVTIVNLVLFGDDSVCIDIDGNIYETVQIGDQLWMAENLKVTHYNDGSEITHIINSDDWGNYNEGQYGVYDNDPSNADIYGNLYNWYTVDDDRGVCPEGFHAPSDEEFMELEIFLGMSESEANSTGNRGTNEGSKLADNADLWISGNLENNAEFGMSGFNGLPAGHRLYDNGYYSSMGNFVSYWSSTEHSSNYAWNRELEYHASVVYRFYATKQFGFSIRCLGD [TEP063]”, which “purified protein yield per well” value is on record?
A: Its value is < 25 µg.
